Experimental data as given in patent US11203621B2, “PH-responsive proteolysis probe” (RIKEN, priority 2015, dated 2021).

Assays:
[1] = system: MEF cells; test: Detection of mitophagy in mammalian cells using mt-SRAI′; assay type: cell-based, Mouse; conditions: 30 μM CCCP, 18 hours, MEF cells with mCherry-Parkin, compared to before addition
Method: A construct that expresses mt-SRAI′ was introduced into MEF cells, in an attempt to visualize and detect mitophagy. mt-SRAI/pMCSTRE3G, pEF1α-Tet3G, and mCherry-Parkin/pcDNA3 which is a factor necessary for mitophagy, were introduced, each in an amount of 0.5 μg, into MEF cells with use of Lipofectamine (Registered Trademark) 2000. Six hours after the introduction, the medium was replaced by a nutrient medium containing 1 μg/ml doxycycline. Twenty-four hours later, induction of expression was stopped, and the nutrient medium was replaced by a nutrient medium containing no doxycycline, so that localization and degradation of a probe remaining in the cytoplasm was encouraged. Eighteen hours later, mitophagy was induced with use of 30 μM carbonyl cyanide m-chlorophenylhydrazone (CCCP), and then 18 hours later, the cells were subjected to imaging. […] In performing the imaging and obtaining and analyzing the images, the same conditions as those for the detection of autophagy in fixed mammalian cells were applied. Ratio images were generated in IMD display in a range of 0 to 0.4.

[2] = system: MEF cells; test: Detection of autophagy in mammalian cells (ratio imaging); assay type: cell-based, Mouse; conditions: living MEF cells, HBSS 37° C. 2 hours
Method: SRAI/pcDNA3 was introduced into MEF cells so as to express SRAI therein, and whether or not SRAI was suitable for observation of autophagy was evaluated. As a control, mCherry-EGFP was used. In order for mCherry-EGFP to be equivalent to an amino acid sequence presented in a previous report (Elsa-Noah N'Diaye, et al., (2009) EMBO reports 10, 173-179), (i) a BamHI/HindIII fragment of mCherry, which fragment contained no stop codon, (ii) a HindIII/EcoRI fragment of EGFP, in which fragment cDNA encoding a linker ([…]) (SEQ ID NO: 6) at N-terminus was added, and (iii) a BamHI/EcoRI fragment of pcDNA3 were ligated with each other, thereby producing mCherry-EGFP/pcDNA3. […]
In imaging, Cool SNAP HQ2 (Photometrics) was used as a camera, UplanF1 40× oil N.A.1.30 (Olympus) was used as an objective lens, and U-MCFPH Q (for AFFP), U-MYFPH Q (for Ypet), U-MRFPH Q (for mCherry), and U-MGFPH Q (for EGFP) were used as filter cubes (each cube is manufactured by Olympus). Images were obtained and analyzed with use of MetaMorph (Universal Imaging Corporation). […]
Further, Rosella was introduced into MEF cells in an attempt to visualize and detect autophagy. […] Images were obtained and analyzed with use of MetaMorph (Universal Imaging Corporation), and ratio images were produced as DsRed.T3/SE P in IMD display in a range of 0 to 1 (the scale bar for FIG. 12 is 20 μm).

[3] = system: MEF cells; test: Detection of autophagy in fixed mammalian cells; assay type: cell-based, Mouse; conditions: MEF cells fixed 15 minutes in PBS containing 4% PFA
Method: Subsequently, examination was conducted to examine whether or not SRAI would detection of autophagy also in fixed cells. The same operations as those of the autophagy detection above were conducted, except that (i) only SRAI was observed and (ii) after observation of living cells, the cells were fixed and observed again in the same field of view. The living cells were fixed for 15 minutes at room temperature in PBS containing 4% PFA, and cells thus fixed were subjected to washing with use of HBSS (5 minutes×3 times) and then subjected to observation for the second time.

[4] = system: pepsin; test: Resistance to degradation by acidic protease (incubation in pH 7.0 / pH 4.0 / pH 4.0 + pepsin buffers); assay type: physicochemical
Method: An Escherichia coli test was conducted which included a treatment of incubating purified recombinant proteins in each of three reaction buffers (pH 7.0/no pepsin, pH 4.0/no pepsin, pH 4.0/0.05% pepsin). The reaction buffers had been prepared as 25 mM HEPES buffer (pH 7.0) or 25 mM acetic acid buffer (pH 4.0) (119 mM NaCl, 2.5 mM KCl, 2 mM CaCl2, 2 mM MgCl2, and 30 mM glucose). A mixture obtained by adding each purified protein to each of the reaction buffers was incubated at 37° C. for 2 hours. The mixture was divided into two, each of which was then subjected to fluorescence intensity measurement and western blotting. The fluorescence intensity measurement was conducted after the pH of the mixture was prepared by diluting the mixture by 200 folds with use of a buffer at pH 7.0. For detection of a protein by means of western blotting, the following antibodies were used. AFFP: a rabbit anti-Azami-Green antibody (MBL, PM052M). EGFP and Ypet: a rabbit anti-GFP antibody (CST, #2555).
With use of SRAI/pRSETB, the same procedure as the fluorescence intensity measurement in the item <Confirmation of resistance to degradation by acidic protease> was carried out. Fluorescence intensity measurement was conducted by irradiating the AFFP part in SRAI with excitation light of 410 nm and irradiating the Ypet part in SRAI with excitation light of 500 nm.
Experiments were conducted to determine whether or not a probe (Rosella) reported by Rosado et al. was suitable for measuring autophagy as compared with SRAI. A construct of Rosella was expressed in Escherichia coli, and a recombinant fluorescent protein was purified. The recombinant fluorescent protein was incubated for 2 hours at 37° C. in a reaction buffer at pH 7.0, a reaction buffer at pH 4.0 (with 0.05% pepsin), and a reaction buffer at pH 4.0 (without 0.05% pepsin) in accordance with a previous report (Katayama, H, et al. (2008) Cell Struct. Funct. 33, 1-12), and was subjected to fluorescence measurement. Before the fluorescence measurement, pHs of these samples were adjusted to coincide with each other by diluting each sample with a buffer (pH 7.0) by 200 folds. The reaction buffers had each been prepared as 25 mM HEPES buffer (pH 7.0) or 25 mM acetic acid buffer (pH 4.0) (119 mM NaCl, 2.5 mM KCl, 2 mM CaCl2, 2 mM MgCl2, and 30 mM Glucose).

[5] = Escherichia coli test: pH dependency of fluorescence intensity; assay type: physicochemical
Method: As a control for AFFP, a protein was selected as appropriate from green fluorescent proteins (EGFP and Sapphire), a yellow fluorescent protein (Ypet), and red fluorescent proteins (mCherry and Tag-RFP).
With use of EGFP and mCherry as controls, an Escherichia coli test was conducted to examine pH dependency of a change in fluorescence intensity of AFFP. In the Escherichia coli test, fluorescence intensity of a purified recombinant protein obtained was measured under nine pH conditions ranging from pH 4.0 to 8.0 with an increment of 0.5. The fluorescence intensity of each fluorescent protein under each pH condition was plotted. Note that the plotting was performed in such a manner that a maximum fluorescence intensity of each fluorescent protein was set to 1, and fluorescence intensities of the fluorescent protein under other pH conditions were plotted as relative values with respect to 1.
With use of EGFP, Sapphire, Ypet, mCherry, and Tag-RFP as controls, an Escherichia coli test was conducted to examine pH dependency of a change in fluorescence intensity of AFFP. In the Escherichia coli test, fluorescence intensities in respective cases of pH 7.0 and pH 4.0 were measured. Then, fluorescence intensities of the fluorescent proteins under the two pH conditions were compared. Note that the fluorescence intensity of each protein at pH 7.0 was set to 1. […]

[6] = Escherichia coli test: fluorescence intensity of purified recombinant proteins; assay type: physicochemical; conditions: expressed at 18° C., buffer at pH 7.0, equal protein concentration
Method: AFFP and mAG407 were expressed in Escherichia coli (18° C.) and a mammalian cell (Mouse embryonic fibroblast (MEF) cell) (37° C.) so as to be compared with each other in terms of fluorescence intensity. Comparison of fluorescence intensity between AFFP and mAG407 which were expressed in Escherichia coli was conducted in accordance with a previous report (Katayama, H, et al., (2008) Cell Struct. Funct. 33, 1-12). The concentrations of purified recombinant proteins were adjusted to coincide with each other, and the fluorescence intensity of each fluorescent protein was measured in a buffer at pH 7.0. A test conducted with respect to a protein expressed in Escherichia coli in accordance with the aforementioned Katayama, H, et al. will be hereinafter simply referred to as “Escherichia coli test.”
Both in the Escherichia coli test and the MEF cell test, AFFP was excited with use of excitation light having an excitation peak wavelength (406 nm) and mAG407 was excited with use of excitation light having an excitation peak wavelength (407 nm), in the measurement of fluorescence intensity. Further, both in the Escherichia coli test and the MEF cell test, the intensity of fluorescence emitted from AFFP was set to 1 in numerical representation and plotting of fluorescence intensity.

[7] = acidic condition (pH 4.0/no pepsin)
[8] = acidic condition with pepsin added (pH 4.0/0.05% pepsin)
[9] = neutral condition (pH 7.0/no pepsin)

Molecule: N#CC(C#N)=NNc1cccc(Cl)c1 [CCCP, carbonyl cyanide m-chlorophenylhydrazone]
- mitophagy induction (red points in ratio images) [1]: significant increase of red points

Molecule: SRAI: FRET probe obtained by ligating Ypet, a (GGGGS)3 linker, and AFFP in this order
- autophagy signal (bright points, high-ratio structures in ratio image) [2]: a bright point (dot) and a red point in a ratio image were observed
- autophagy signal before and after fixation [3]: little change was observed
- fluorescence spectrum, excitation 410 nm [4, 7]: reduction in peak of fluorescence from Ypet
- fluorescence spectrum, excitation 500 nm [4, 7]: single weak peak
- fluorescence spectrum, excitation 410 nm [4, 8]: only a single peak that was based on fluorescence from AFFP
- fluorescence spectrum, excitation 500 nm [4, 8]: no fluorescence
- fluorescence spectrum, excitation 410 nm [4, 9]: two peaks
- fluorescence spectrum, excitation 500 nm [4, 9]: single intense peak

B1: AFFP: modified mAG407 further having mutations T58S, V60S, T82A, R184S, K199E, Y210C, Y217A; green fluorescent protein used as FRET donor (protein)
chain: MVSVIKPEMKIKLCMRGTVNGHNFVIEGEGKGNPYEGTQILDLNVTEGAPLPFAYDILSTSFQYGNRAFTKYPADIQDYFKQAFPEGYHWERSMTYEDQGICTATSNISMRGDCFFYDIRFDGTNFPPNGPVMQKKTLKWEPDTEKMYVEDGVLKGDVNMRLLLEGGGHYRCDVKTTYKAKKEVSLPDAHKIDHRIEILEHDKDYNKVKLCENAVARASMLPSQAK
- pH dependency of fluorescence intensity ([5]; nine pH conditions, pH 4.0 to 8.0, controls EGFP and mCherry): substantially constant fluorescence intensity
- fluorescence intensity at pH 4.0 versus pH 7.0 ([5]; pH 7.0 set to 1, controls EGFP, Sapphire, Ypet, mCherry, Tag-RFP): not affected by a change in pH
- degradation by acidic protease (western blotting, fluorescence) ([4]; pH 4.0/0.05% pepsin, 37° C., 2 hours): not degraded by acidic protease
- fluorescence intensity relative to mAG407 [6]: 2.5 times
